Assay results reported in PMC4933900, “Defined enzyme cocktail from the anaerobic fungus Orpinomyces sp. strain C1A effectively releases sugars from pretreated corn stover and switchgrass” (Scientific Reports, 2016).

Key:
EG5 = target: T1, EG5 (Pecoramyces ruminantium, UniProt A0A1B1JH60); test: endoglucanase assay, CellG3 kit, 2-chloro-4-nitrophenol release; type: biochemical; conditions: printed BDL (below detection limit 500 nM); Lineweaver-Burk extrapolation 0.000003999 mM
T1 construct: whole CDS (nt 1-1251 of transcript; protein length 417) cloned; codon-optimised synthetic gene in pET28a(+) NdeI/XhoI, E. coli, purified
Excerpt: endoglucanase assay, CellG3 kit, 2-chloro-4-nitrophenol release on EG5

[1] = substrate: O=[N+]([O-])c1ccc(O[C@@H]2O[C@H](CO)[C@@H](O[C@@H]3O[C@H](CO)[C@@H](O)[C@H](O)[C@H]3O)[C@H](O)[C@H]2O)cc1; test: cellobiohydrolase assay, p-nitrophenol release; type: biochemical, Pecoramyces ruminantium; conditions: 0.1 M sodium acetate buffer, 15 min; pH and temperature of kinetics not stated
[2] = substrate: O=[N+]([O-])c1ccc(O[C@@H]2O[C@H](CO)[C@@H](O[C@@H]3O[C@H](CO)[C@@H](O[C@@H]4O[C@@H]5COC(c6ccccc6)O[C@H]5[C@H](O)[C@H]4O)[C@H](O)[C@H]3O)[C@H](O)[C@H]2O)c(Cl)c1; test: endoglucanase assay, CellG3 kit, 2-chloro-4-nitrophenol release; type: biochemical, Pecoramyces ruminantium; conditions: pH and temperature of kinetics not stated
Excerpt: endoglucanase assay, CellG3 kit, 2-chloro-4-nitrophenol release on Cel48

purified protein = substrate: O=[N+]([O-])c1ccc(O[C@@H]2O[C@H](CO)[C@@H](O)[C@H](O)[C@H]2O)cc1; test: purified protein; conditions: 0.1 M sodium acetate buffer, 15 min; pH and temperature of kinetics not stated
[3] = substrate: O=[N+]([O-])c1ccc(O[C@@H]2OC[C@@H](O)[C@H](O)[C@H]2O)cc1; test: beta-xylosidase assay, p-nitrophenol release; type: biochemical, Pecoramyces ruminantium; conditions: 0.1 M sodium acetate buffer, 15 min; pH and temperature of kinetics not stated

O=[N+]([O-])c1ccc(O[C@@H]2O[C@H](CO)[C@@H](O[C@@H]3O[C@H](CO)[C@@H](O[C@@H]4O[C@@H]5COC(c6ccccc6)O[C@H]5[C@H](O)[C@H]4O)[C@H](O)[C@H]3O)[C@H](O)[C@H]2O)c(Cl)c1 (some centres unmarked) [CellG3]
Km (EG5): < 0.5 µM

B1: Cel48 (Pecoramyces ruminantium) (protein)
chain: MPSIRTALTLLGASAVIAAPTKRANDAYAQRVIDTYNAVTGNGSYRSDYFSPENVPYHSVETMMVEAPDQGHESVSETYSFWVWLEAINGKMTGNYDGVNTAWSYLEKHIIPDSKNQPGMSRYNSSSPATYAPEDDDITNYPSKLIFQDGLVGQDPIAAELQQAYGTWDIYAMHWIIDGDNWYGYGQQGDGTTKPSFINTFQRGPSESAWKTVPHPCWEEFKWGGRNGFLDLFTVDNSYAKQWRYTAAPDADARAIQAAYFAYIWAKEDGQNLSSLAGKAAKLGDYLRYAHYDKYFKKIGNCIGYQQCQAGSGKNSAHYLISWYFSWGGGLQGDWSWRIGSSHTHTGYQNPLAAWVLSTESAFKPKGSTAVKDWATSLDRQLELFRWLQAAEGCIAGGATNSWQGHYAQPPSDITSFYGMYYDWQPVYHDPPSNNWTGMQGWGMERVCSLYFLSGNEKAGKVCQDWAKWVKNNVRVNGSEVVHATNFSWSGNPDEWKPANFNKSGLNASLHGTVSTEGIDIGSLASIIKGLMWVSMKDGDQEGIDLAVQVMDAIEQYRDDHGYGVEEAREDYAKFNEEVYIPSGWTGKNAQGANIRNGVKFIDIRPKYKQDPDWPQIENFLNGGEAPRFTYHRFWAQTEIAVANGLISIYGLSDGSGVVPTKPGSCAAAIKAQGYKCCSANCEVVYTDADGDWGVENDEWCGCGGGEPECPAAITNQGYPCCSTCGTVYYTDGDGDWGVENGDWCGMPTDC
notes: whole CDS (nt 87-2342 of transcript; protein length 751) cloned; codon-optimised synthetic gene in pET28a(+) NdeI/XhoI, E. coli, purified
Km [1]: 8980 µM
Vmax [1]: 0.357 µmol/min/mg
Km [2]: 30100 µM
Vmax [2]: 0.048 µmol/min/mg

B2: XYL11 (Pecoramyces ruminantium) (protein)
chain: GSGTSGTADFPYAKVYIGNQQNQPSYQPTTTRNNSQPTSPATGGSSGEICSASGHSGESTKVTSNKVGSINGIGYELWADSGNNSATFYSDGSFSCTFQNAKDYLCRSGLSFDSTKTHSQIGHLYADFKLVKQGISNVDYSYVGIYGWTRSPLVEFYIVDNWLSQYRPGDWVGNKKHGDFTIDGAQYTVYENTRTGPSIDGNTQFKQYFSIRKTARDCGTIDITAHFQQWEKLGMTMGKMHEAKVLGEAGSNGSGTSGTADFPYAKVYTGS
Km (purified protein): 216 µM
Vmax (purified protein): 0.28 µmol/min/mg

B3: BGL1 (Pecoramyces ruminantium) (protein)
chain: IVKPAADAAADVASDAEVVASDEENPLDNGEDSADDTPKGKLPSDFKWGAATAAYQVEGAWNEEGRGESVWDHFTHLYPKNVESGDRSNKDSTNGNVACDSYHKFDEDIKMMKIMNANHYRFSISWSRLFPDGQAKKVDGEWNVNEAGAQYYDMVIDTLLDNDIIPLATLYHWDLPYALHEKYGGWLDYHSQFDFAKYAEFCFERYGDRVKGWITINEPWVNCVAGYKNGPGKAPYRCTGEAPRKLANDTTGLDLEGGCSYEIGPSQYTKDSEVLPANRPPQKLEDVWCSHNILLGHAQAVKVYREKFQKEQKGLIGITIDGEAQIPWEEPGMSEEEYENNKKYANLAAEFRIGWYSDPVMFGDYPESVKQRNGKDMPVFTDEEKKLLKGSSSDFLGWNTYTSHWAAQVKNEDGSYVEPPTDEEASYDNSKRDMWDDNCKGRGDGWTCIPPTLGSQAGSSWNTKYGPTIRVGLNWFSKRYEGIIKNGIIITENGCAQPNYKVSRANDQVTLDYWKSIGKEEFADTYDEDIIEDESDLEGTLIHDTYRIDWYKQYLENLRLAYVEDGVDVRGYMAWSLVDNFEWENGYETRFGMTYIDFYNDKDLKRVPKDSLTFLGQWYLDNVEQE
Km (purified protein): 164 µM
Vmax (purified protein): 5.41 µmol/min/mg

B4: BGL3 (Pecoramyces ruminantium) (protein)
chain: TWEEADAKAREWCSDLTNEEKIALITGRENMTGVCVGSIDPIERKGFKGLCLQDGPAGVRFAKGTATSWQASINTAATFDRTLLRKVGEAQGNEFYQRGINVALAPSMGIQRAPAAGRIFESYGEDPFYVGQCGLEVLKGIQSQGVIANAKHYIANDQENNRGASTSNVPEQALWEVYMEPFYRTVVEGEAGTVMASYNAINGTYSTQNKRLLTDYLKGKLGFKGFVMSDWWAIFDVEKSFGNGTDMNMPGGKYWGPDYVGDSFWGEHIQECIDNGVFPQERLDDAVLRIIRTLYKLDQMDDYPEVNLYVDTNTKENAALNRKVGADSNVLLKNADNILPIKKSKKVKKIAVIGKDSMPPTLCEDMKCANGTLPLGWGSGTTDFKYVVDPLSAITKRAKKSKISVVSYGEDDAKKAAKVAKKADVAIVFVQADSGEEYITVEGNAGDRLNLDLWHGGNELIEAVAAVNKNTIVVIHAPGPVNVPFLDKVKGIIFAGLPGQETGNAITDVLFGDVNPSGHLPYTWAPREDYPTDVKYEPEYPDGGEKMTVYDYNEGLFVGYRWFDKKEIEPTFAFGYGLSYTTFEFSDLEATMEDDGLYVSLTVTNTGKVAGAAVPMIFLSFPESVKDYPIRLFKGFDKVMLKAGESKETTIFIDAHGLSYFDVEKMEYVRPKDGEFTVYAGSNARDLPLNVKVLANGDEI
notes: about residues 22-721; pET28a(+) NdeI/XhoI, codon-optimised, E. coli, purified
Km (purified protein): 275 µM
Vmax (purified protein): 1.55 µmol/min/mg
Km [3]: 50600 µM
Vmax [3]: 0.068 µmol/min/mg

B5: EG5 (Pecoramyces ruminantium) (protein)
chain: TLLGLAIIGTKAMRNISSKELVKELTIGWSLGNTLDATCFETLNYAKDQTASETCWGNVKTTQELYYKLNDLGFNTFRIPTTWSGHFGDGPDYKISEAWMKRVHEIVDYALNADGYAILNIHHETWNHAFQKNLESAKKILVAIWKQIAAEFADYDEHLIFEGMNEPRKVGDAAEWNGGDYEGWNFVNEMNDLFVKTIRATGGNNALRHLMIPTYAACVNDGAINNFRFPSGDDKVIVSLHSYSPYNFALNNGAGAISNFNDGSEIDWVMNTINSSFISKGIPVIIGEFGAMNRNNEADREKWAEYYIKKATSLGIPCVIWDNGYFEGEGERFGLIDRKSLNVVYPRLVNGLMKGLGDKKPKTTKVRTTTTTTIQVQPTNNNDCFSTKLGYDCCNGCEVFYTDNDGKWGVENGNWCG
Km (purified protein): 84000 µM
Vmax (purified protein): 0.45 µmol/min/mg

B6: Cel6A (Pecoramyces ruminantium) (protein)
chain: PKSSGGSTTTPVNPGDVDATPGDQLTLSGNPFSGVEFYINPYYVAEVDGAIAQMTDSSLKAKAEKMKTYSNAIWLDTIKNMNSWLESNLKGALAQQTGSKKVLTVFVVYDLPGRDCHALASNGELLANSSDAQRYKTEYIDVIEKHLKTYKSQPVALIVEPDSLANLVTNLESTPACRDSESYYLDGHAYLIKKLGVLPHVAMYLDIGHAFWLGWDDNREKAGKVYAKVIQSGSPGKVRGFTDNVSNYTPWEDPTLSRGPDTEWNPCPDEKRYLEAMHKDFKAAGISSVYFVSDTSRNGHKTDRKHPGEWCNQTGVGIGARPQASPISGMDYLDAFYWIKPLGESDGTSDESAVRFDGYCGHETAMKPAPEAGQWFQKHFEQGLENANPPL
notes: whole CDS (nt 2-1177 of transcript; protein length 391) cloned; codon-optimised synthetic gene in pET28a(+) NdeI/XhoI, E. coli, purified
Km [1]: 228 µM
Vmax [1]: 3.27 µmol/min/mg
